Measured values: the supplement of paper PMC7877785
± gives the uncertainty stated by the source.

Assay: self-splicing fitness, log relative to wild type (ln ratio); higher = more splicing; Tetrahymena group I intron in knt gene, E. coli kanamycin selection, DiMSum; sequences stand for … in CUCUCU…GGAGGGAAAAGUUAUCAGGCAUGCACCUGGUAGCUAGUCUUUAAACCAAUAGAUUGCAUCGGUUUAAAAGGCAAGACCGUCAAAUUGCGGGAAAGGGGUCAACAGCCGUUCAGUACCAAGUCUCAGGGGAAACUUUGAGAUGGCCUUGCAAAGGGUAUGGUAAUAAGCUGACGGACAUGGUCCUAACCACGCAGCCAAGUCCUAAGUCAACAGAUCUUCUGUUGAUAUGGAUGCAGUUCACAGACUAAAUGUCGGUCGGGGAAGAUGUAUUCUUCUCAUAAGAUAUAGUCGGACCUCUCCUUAAUGGGAGCUAGCGGAUGAAGUGAUGCAACACUGGAGCCGCUGGGAACUAAUUUGUAUGCGAAAGUAUAUUGAUUAGUUUUGGAGUACUCGUGGUCG
Method in brief: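 DiMSum derived fitness as the error-weighted combination of fold changes across replicates, kanamycin versus no kanamycin, normalised to wild type. E. coli BL21(DE3) held the library, which randomised all eight P1ex-region intron nucleotides within the knt kanamycin-resistance gene on pET-22b(+). Six replicate transformations grew overnight at 37°C or 30°C on LB agar with or without 25 μg/mL kanamycin, also containing 100 μg/mL carbenicillin, 50 μM IPTG and 0.2% rhamnose, and pooled colonies were amplicon-sequenced on an Illumina HiSeq 2500.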

Sequence	self-splicing fitness (ln) (30 °C)	self-splicing fitness (ln) (37 °C)
GACAAGCAAUAUUACGGACC	-1.32 ± 0.1	-0.785 ± 0.11
GACAAGCAAUAUUACGGAUG	-2.92 ± 0.11	-1.75 ± 0.12
GACAAGCAAUAUUACGGAUU	-2.16 ± 0.076	-0.656 ± 0.076
GACAAGCAAUAUUACGGCGG	-3.27 ± 0.29	-1.87 ± 0.18
GACAAGCAAUAUUACGGUAC	-2.81 ± 0.13	-2.64 ± 0.16
GACAAGCAAUAUUACGGUAG	-1.84 ± 0.098	-0.222 ± 0.092
GACAAGCAAUAUUACGGUGC	-2.77 ± 0.21	-1.63 ± 0.24
GACAAGCAAUAUUACGUCAC	-2.9 ± 0.23	-2.75 ± 0.29
GACAAGCAAUAUUACGUCCA	-2.8 ± 0.14	-1.42 ± 0.13
GACAAGCAAUAUUACGUCCG	-1.98 ± 0.27	-2.47 ± 0.28
GACAAGCAAUAUUACGUCGU	-3.44 ± 0.14	-2.24 ± 0.11
GACAAGCAAUAUUACGUGGU	-3.63 ± 0.11	-2.76 ± 0.12
GACAAGCAAUAUUACGUUUG	-2.88 ± 0.094	-2.64 ± 0.13
GACCAGCAAUAUUACGAAAA	-2.05 ± 0.12	-0.391 ± 0.11
GACCAGCAAUAUUACGAAAC	-1.43 ± 0.099	0.296 ± 0.11
GACCAGCAAUAUUACGAACA	-0.472 ± 0.091	0.313 ± 0.081
GACCAGCAAUAUUACGAAUA	-1.74 ± 0.11	-0.549 ± 0.11
GACCAGCAAUAUUACGACCC	-0.132 ± 0.14	0.75 ± 0.18
GACCAGCAAUAUUACGACGU	-0.417 ± 0.064	0.321 ± 0.078
GACCAGCAAUAUUACGAGCA	-1.07 ± 0.084	-0.284 ± 0.096
GACCAGCAAUAUUACGAGCG	-2.08 ± 0.067	-0.434 ± 0.077
GACCAGCAAUAUUACGAGGU	-2.95 ± 0.12	-3.04 ± 0.2
GACCAGCAAUAUUACGAGUU	-3.35 ± 0.1	-1.5 ± 0.096
GACCAGCAAUAUUACGCACG	-0.677 ± 0.067	-0.895 ± 0.095
GACCAGCAAUAUUACGCCGC	-3.75 ± 0.32	–

Sequence	self-splicing fitness (ln) (30 °C)	self-splicing fitness (ln) (37 °C)
GACCAGCAAUAUUACGGAGU	-0.646 ± 0.077	0.000468 ± 0.092
GACCAGCAAUAUUACGGCCU	-2.51 ± 0.13	-0.969 ± 0.11
GACCAGCAAUAUUACGGGAG	-0.677 ± 0.053	-0.0889 ± 0.065
GACCAGCAAUAUUACGUACU	-0.709 ± 0.069	0.123 ± 0.082
GACCAGCAAUAUUACGUAGA	0.284 ± 0.056	0.219 ± 0.074
GACCAGCAAUAUUACGUCCA	-1.75 ± 0.095	-0.749 ± 0.095
GACCAGCAAUAUUACGUCUC	-0.562 ± 0.044	-0.159 ± 0.064
GACCAGCAAUAUUACGUGCG	-0.787 ± 0.082	-0.644 ± 0.097
GACCAGCAAUAUUACGUUAA	-1.13 ± 0.093	-0.35 ± 0.1
GACGAGCAAUAUUACGAAUG	-3.03 ± 0.2	-2.31 ± 0.22
GACGAGCAAUAUUACGACAU	-2.931 ± 0.021	-1.99 ± 0.036
GACGAGCAAUAUUACGAGAC	-3.99 ± 0.28	-1.95 ± 0.28
GACGAGCAAUAUUACGAGCU	-3.27 ± 0.31	–
GACGAGCAAUAUUACGAGUU	-3.06 ± 0.34	–
GACGAGCAAUAUUACGAUUC	-1.39 ± 0.11	-1.47 ± 0.17
GACGAGCAAUAUUACGCAAU	–	-2.74 ± 0.31
GACGAGCAAUAUUACGCAGG	-2.39 ± 0.2	-1.6 ± 0.26
GACGAGCAAUAUUACGCAGU	-3.48 ± 0.28	-2.21 ± 0.23
GACGAGCAAUAUUACGCCAG	–	-2.63 ± 0.28
GACGAGCAAUAUUACGCCUC	-3.23 ± 0.37	-1.86 ± 0.38
GACGAGCAAUAUUACGCGGG	-3.48 ± 0.47	-2.61 ± 0.36
GACGAGCAAUAUUACGCUCA	-1.28 ± 0.15	-0.493 ± 0.13
GACGAGCAAUAUUACGGAAG	-2.39 ± 0.23	-2.5 ± 0.31
GACGAGCAAUAUUACGGACC	-1.34 ± 0.34	-0.304 ± 0.33
